Measured values as given in patent US20180002381A1.

Key:
[1] = target: Coiled coil domain of Atg4L (Atg14L coiled coil) (Mus musculus (Mouse)) (UniProt Q8CDJ3); test: ITC
[2] = target: Coiled coil domain of UVRAG (228-276) (Mus musculus) (UniProt Q8K245); test: ITC
Chain of Coiled coil domain of UVRAG (228-276) (Mus musculus) (Q8K245 other isoform, or with tags, fused parts or gaps limits assumed): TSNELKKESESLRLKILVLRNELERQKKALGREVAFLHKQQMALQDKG

Chain of Coiled coil domain of Atg4L (Atg14L coiled coil) (Mus musculus (Mouse)) (Q8CDJ3 other isoform, or with tags, fused parts or gaps limits assumed): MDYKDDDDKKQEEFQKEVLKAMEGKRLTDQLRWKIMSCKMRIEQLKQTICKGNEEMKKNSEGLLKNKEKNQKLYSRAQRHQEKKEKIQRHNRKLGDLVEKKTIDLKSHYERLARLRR

“Beclin1 mutant L241E/L245E (from UniProt Q91XJ1 174-266)” was tested, and the Kd [1] was 500 nM, the Kd [2] was 10 nM and the fold stronger than wild-type Beclin1 [2] was 20 times.
